Consider one molecule from patent publication CN111320688A.

Assay [1] has as its target 黄病毒属中的登革病毒、寨卡病毒、西尼罗河病毒和黄热病毒的E蛋白.
Assay [2] deals with 登革病毒1-4型、西尼罗河病毒和黄热病毒 (病毒颗粒表面E蛋白). Briefly: cell-based or functional assay.

B1: TIB12抗体 (antibody, V domains shown)
VH: EVQLLESGGGLVQPGGSLRLSCAASGFTFSSQVMSWVRQAPGRGLEWVSVIHTGGSSTYYADSVKGRFTISRDNSKNTVFLHMNSLRVEDTALYYCAKGSAYGDYVEY
VL: QSVLTQPPSVSGAPGQRVTISCTGSSSNIGAGYDVHWYQQPPGTAPKLLIYGNNNRPSGVPDRFSGSKSGTSASLAITGLQAEDEADYYCQSYDSSLSGGV
Turning to B1, the Kd in assay [1] fell in the range of 0.13 to 0.85 nM. Moreover, the IC50 (中和能力; Vero细胞感染, 流式检测) in assay [2] fell in the range of 0.04 to 1.31 µg/mL.

As a reminder, the Kd is the equilibrium constant for the complex coming apart. Read a high Kd as a looser complex.
